Data reported in patent publication US20160002331A1 (Pfizer, published 2016).
Values joined by “and” are separate entries in the source; they are usually repeats but may differ in a detail not shown here. Equal values may be shown once.

T1: human Notch1 NRR_Avi_His recombinant protein (human, UniProt P46531 1434-1737)
T1 construct: Secreted from CHO-PACE cells; cleaved at S1 into an N-terminal ~26 kDa half (LNR-A, B, C, HD1) and a C-terminal ~12 kDa half (HD2 and tag) that stay associated non-covalently; written here as one chain; also called recombinant human Notch1 NRR; human Notch1 NRR immunogen
T1 sequence: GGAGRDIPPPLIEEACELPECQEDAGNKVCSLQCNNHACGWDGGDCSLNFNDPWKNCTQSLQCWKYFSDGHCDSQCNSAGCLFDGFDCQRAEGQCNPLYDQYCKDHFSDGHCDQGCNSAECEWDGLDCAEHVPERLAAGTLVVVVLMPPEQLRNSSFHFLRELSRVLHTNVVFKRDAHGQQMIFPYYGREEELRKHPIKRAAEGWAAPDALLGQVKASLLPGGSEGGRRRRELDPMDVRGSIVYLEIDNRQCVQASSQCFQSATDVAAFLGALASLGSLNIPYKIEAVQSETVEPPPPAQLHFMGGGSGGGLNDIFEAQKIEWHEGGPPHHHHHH

B1: humanized 438 VH1.1/VL1.8 (antibody, human IgG1, kappa, V domains shown)
VH: EVQLVESGGGLVQPGGSLRLSCAASGFTFSSFAMAWVRQAPGKGLEWVASISYGGADTYYRDSVKGRFTISRDNAKNSLYLQMNSLRAEDTAVYYCAKDLPYYGYTPFVMDAWGQGTLVTVSS
VL: DIQMTQSPSSLSASVGDRVTITCRASQRINTDLHWYQQKPGKAPKVLIKFASQTISGVPSRFSGSGSGTDFTLTISSLQPEDFATYYCQQSNSWPYTFGQGTKLEIKR
notes: full chains (VH1.1)-hIgG1-3M and (VL1.8)-hkappa
B2: humanized 438 VH1.1/VL1.3 (antibody, human IgG1, V domains shown)
VH: EVQLVESGGGLVQPGGSLRLSCAASGFTFSSFAMAWVRQAPGKGLEWVASISYGGADTYYRDSVKGRFTISRDNAKNSLYLQMNSLRAEDTAVYYCAKDLPYYGYTPFVMDAWGQGTLVTVSS
VL: DIQLTQSPSSLSASVGDRVTITCRASQRINTDLHWYQQKPGKAPKLLIYFASQTISGVPSRFSGSGSGTDFTLTISSLQPEDFATYYCQQSNSWPYTFGQGTKLEIK
B3: rat 351-mIgG1 (antibody, V domains shown)
VH: EVQLVESGGGLVQPGRSLKVSCLASGFTFSHYGMNWIRQAPGKGLDWVASISRSGSYIRYVDTVKGRFTVSRDIAKNTLYLQMTSLRSEDTALYYCAREGQFGDYFEYWGQGVMVTVSS
VL: DIMLTQSPATLSVTPGERISLSCRASQKISTNLHWYQQKPNESPRILIKYASQTISGIPSRFSGSGSGTDFTLHINTVEPEDFSVYYCQQTNSWPLTFGSGTKLEIK
B4: rat 351(R58Y/V60A)-mIgG1 (antibody, V domains shown)
VH: EVQLVESGGGLVQPGRSLKVSCLASGFTFSHYGMNWIRQAPGKGLDWVASISRSGSYIYYADTVKGRFTVSRDIAKNTLYLQMTSLRSEDTALYYCAREGQFGDYFEYWGQGVMVTVSS
VL: DIMLTQSPATLSVTPGERISLSCRASQKISTNLHWYQQKPNESPRILIKYASQTISGIPSRFSGSGSGTDFTLHINTVEPEDFSVYYCQQTNSWPLTFGSGTKLEIK
B5: rat 351(R58Y)-mIgG1 (antibody, V domains shown)
VH: EVQLVESGGGLVQPGRSLKVSCLASGFTFSHYGMNWIRQAPGKGLDWVASISRSGSYIYYVDTVKGRFTVSRDIAKNTLYLQMTSLRSEDTALYYCAREGQFGDYFEYWGQGVMVTVSS
VL: DIMLTQSPATLSVTPGERISLSCRASQKISTNLHWYQQKPNESPRILIKYASQTISGIPSRFSGSGSGTDFTLHINTVEPEDFSVYYCQQTNSWPLTFGSGTKLEIK
B6: humanized 351 VH1.0/VL1.4 (antibody, human IgG1, V domains shown)
VH: EVQLVESGGGLVQPGGSLRLSCAASGFTFSHYGMNWVRQAPGKGLEWVASISRSGSYIRYVDTVKGRFTISRDNAKNSLYLQMNSLRAEDTAVYYCAREGQFGDYFEYWGQGTLVTVSS
VL: DIQMTQSPSSLSASVGDRVTITCRASQKISTNLHWYQQKPGKAPKLLIKYASQTISGVPSRFSGSGSGTDFTLTISSLQPEDFATYYCQQTNSWPLTFGGGTKVEIK

What was measured:
[1] = molecular target: T2, full-length mouse Notch1 expressed on the cell surface of U-2 OS cells (mouse, UniProt Q01705 19-2531); assay: cell-based ELISA, U-2 OS cells expressing full-length mouse Notch1
T2 construct: whole, on cells; also called murine Notch1
Protocol: (§1) Supernatants from clones displaying positive binding to immunogens in recombinant Notch1 NRR based ELISAs described above were then screened for cell surface Notch1 binding in a cell-based ELISA. U-2 OS cells stably overexpressing human or mouse full length Notch1 protein on cell surface were plated at 50,000 cells/well in 96 well plates (white opaque, BD/VWR) the day before ELISA assay. On the day of the ELISA, culture media were removed from wells and serially diluted (1:3 in blocking buffer) antibody solutions or hybridoma culture supernatants were applied to the plate. Plates were incubated at room temperature for 2 hours before being washed with PBS-Mg/Ca. HRP-conjugated secondary antibody was then applied and incubated with cells for 1 hour as described above for recombinant protein ELISA. Plates were washed with PBS-Mg/Ca before being developed with Pico-Chemiluminescent developing kit (Thermal Scientific), and chemiluminescence measurements were performed per manufacturer's instructions. Data plotting and analyses were performed with Microsoft Excel and Graphpad-Prizm software.

[2] = molecular target: T1, human Notch1 NRR_Avi_His recombinant …; assay: SPR (Biacore T100), antibody captured by anti-human IgG-Fc, NRR_Avi_His as analyte, 1:1 Langmuir model
Protocol: (§2) The kinetic constants of the anti-Notch1 NRR interactions were determined by surface plasmon resonance (Biacore® T100, Biacore Inc., Piscataway, N.J.). Flow cells of a CM5 chip were immobilized with approximately 10,000 Resonance Unit (RU) of anti-human IgG-Fc (Biacore®) in 10 mM Glycine, pH 5.0 at 10 μl/min for 600 seconds. […] Association of four concentrations of human Notch1 NRR_Avi_His recombinant protein (from 3.7-100 nM) and a zero concentration (running buffer) at 100 μl/min were recorded for 3 minutes in TBS with 1 mM CaCl₂. Dissociation of the complexes was measured for 10 minutes. The surface of the chip was regenerated by injecting 3M MgCl₂ with 3 mM EGTA for 60 seconds at 10 μl/min. Curves obtained after subtraction of the reference and buffer signals were fitted to a 1:1 Langmuir binding model with Biacore® T100 Evaluation Software (Biacore®).

[3] = molecular target: T3, full-length human Notch1 expressed on the cell surface (human, UniProt P46531 19-2555); assay: competition ELISA on U-2 OS cells expressing full-length human Notch1; competitor 0.8 nM biotinylated rat 438
T3 construct: whole, on cells; On U-2 OS cells stably overexpressing it (ELISAs, reporter cells); also called cell surface full-length human Notch1; native Notch1 receptor
Protocol: (§3) In a similar manner as described for recombinant protein or cell based ELISAs, 96 well cell culture plates were either coated with Notch1 NRR-Avi_His protein (hi-bound co-Star plates), or seeded with full length Notch1 expressing U-2 OS cells (cell culture plate, Co-star), respectively.
(§4) After incubation for 2 hours, the plates were washed, as described above, and HRP-conjugated streptavidin (Southern Biotech) diluted 1:5000 in blocking buffer was applied. Incubation with streptavidin was allowed for 30 min before the plates were washed again and developed with TMB solution for 10 minutes. Developing reaction was stopped by adding 0.18M H₂SO₄ and absorbance at 450 nm was measured. Data plotting and analyses were performed with Microsoft Excel and Graphpad-Prizm software.

[4] = molecular target: T1, human Notch1 NRR_Avi_His recombinant …; assay: competition ELISA on coated human Notch1 NRR_Avi_His; competitor 0.8 nM biotinylated rat 438
Protocol: as §3, §4

[5] = molecular target: T4, Notch1 receptor with L1575P mutation (HPB-ALL cells) (UniProt P46531 19-2555, limits assumed); assay: cell-based or functional assay
[6] = molecular target: T1, human Notch1 NRR_Avi_His recombinant …; assay: SPR (Biacore T100), ratio of KD to that of rat 438-hIgG1
Protocol: as §2

[7] = molecular target: T2, full-length mouse Notch1 expressed on …; assay: cell-based or functional assay
[8] = molecular target: T3, full-length human Notch1 expressed on …; assay: cell-based or functional assay
[9] = molecular target: T3, full-length human Notch1 expressed on …; assay: cell-based ELISA, U-2 OS cells expressing full-length human Notch1
Protocol: as §1

[10] = molecular target: T3, full-length human Notch1 expressed on …; assay: cell-based or functional assay; remark: listed apart in the source
[11] = molecular target: Notch1 receptor with a 12 amino acid insertion at position 1595 (CCRF-CEM cells) (UniProt P46531 19-2555); assay: cell-based or functional assay
[12] = molecular target: T4, Notch1 receptor with L1575P mutation …; assay: cell-based or functional assay; remark: listed apart in the source
[13] = molecular target: T2, full-length mouse Notch1 expressed on …; assay: cell-based or functional assay; remark: listed apart in the source
[14] = molecular target: T3, full-length human Notch1 expressed on …; assay: cell-based or functional assay; remark: listed apart in the source
[15] = molecular target: T3, full-length human Notch1 expressed on …; assay: cell-based or functional assay; remark: listed apart in the source
[16] = molecular target: T3, full-length human Notch1 expressed on …; assay: competition ELISA on U-2 OS cells expressing full-length human Notch1; competitor 0.8 nM biotinylated rat 351
Protocol: as §3, §4

[17] = molecular target: T1, human Notch1 NRR_Avi_His recombinant …; assay: SPR (Biacore T100), ratio of KD to that of rat 351

T3 sequence (P46531 19-2555): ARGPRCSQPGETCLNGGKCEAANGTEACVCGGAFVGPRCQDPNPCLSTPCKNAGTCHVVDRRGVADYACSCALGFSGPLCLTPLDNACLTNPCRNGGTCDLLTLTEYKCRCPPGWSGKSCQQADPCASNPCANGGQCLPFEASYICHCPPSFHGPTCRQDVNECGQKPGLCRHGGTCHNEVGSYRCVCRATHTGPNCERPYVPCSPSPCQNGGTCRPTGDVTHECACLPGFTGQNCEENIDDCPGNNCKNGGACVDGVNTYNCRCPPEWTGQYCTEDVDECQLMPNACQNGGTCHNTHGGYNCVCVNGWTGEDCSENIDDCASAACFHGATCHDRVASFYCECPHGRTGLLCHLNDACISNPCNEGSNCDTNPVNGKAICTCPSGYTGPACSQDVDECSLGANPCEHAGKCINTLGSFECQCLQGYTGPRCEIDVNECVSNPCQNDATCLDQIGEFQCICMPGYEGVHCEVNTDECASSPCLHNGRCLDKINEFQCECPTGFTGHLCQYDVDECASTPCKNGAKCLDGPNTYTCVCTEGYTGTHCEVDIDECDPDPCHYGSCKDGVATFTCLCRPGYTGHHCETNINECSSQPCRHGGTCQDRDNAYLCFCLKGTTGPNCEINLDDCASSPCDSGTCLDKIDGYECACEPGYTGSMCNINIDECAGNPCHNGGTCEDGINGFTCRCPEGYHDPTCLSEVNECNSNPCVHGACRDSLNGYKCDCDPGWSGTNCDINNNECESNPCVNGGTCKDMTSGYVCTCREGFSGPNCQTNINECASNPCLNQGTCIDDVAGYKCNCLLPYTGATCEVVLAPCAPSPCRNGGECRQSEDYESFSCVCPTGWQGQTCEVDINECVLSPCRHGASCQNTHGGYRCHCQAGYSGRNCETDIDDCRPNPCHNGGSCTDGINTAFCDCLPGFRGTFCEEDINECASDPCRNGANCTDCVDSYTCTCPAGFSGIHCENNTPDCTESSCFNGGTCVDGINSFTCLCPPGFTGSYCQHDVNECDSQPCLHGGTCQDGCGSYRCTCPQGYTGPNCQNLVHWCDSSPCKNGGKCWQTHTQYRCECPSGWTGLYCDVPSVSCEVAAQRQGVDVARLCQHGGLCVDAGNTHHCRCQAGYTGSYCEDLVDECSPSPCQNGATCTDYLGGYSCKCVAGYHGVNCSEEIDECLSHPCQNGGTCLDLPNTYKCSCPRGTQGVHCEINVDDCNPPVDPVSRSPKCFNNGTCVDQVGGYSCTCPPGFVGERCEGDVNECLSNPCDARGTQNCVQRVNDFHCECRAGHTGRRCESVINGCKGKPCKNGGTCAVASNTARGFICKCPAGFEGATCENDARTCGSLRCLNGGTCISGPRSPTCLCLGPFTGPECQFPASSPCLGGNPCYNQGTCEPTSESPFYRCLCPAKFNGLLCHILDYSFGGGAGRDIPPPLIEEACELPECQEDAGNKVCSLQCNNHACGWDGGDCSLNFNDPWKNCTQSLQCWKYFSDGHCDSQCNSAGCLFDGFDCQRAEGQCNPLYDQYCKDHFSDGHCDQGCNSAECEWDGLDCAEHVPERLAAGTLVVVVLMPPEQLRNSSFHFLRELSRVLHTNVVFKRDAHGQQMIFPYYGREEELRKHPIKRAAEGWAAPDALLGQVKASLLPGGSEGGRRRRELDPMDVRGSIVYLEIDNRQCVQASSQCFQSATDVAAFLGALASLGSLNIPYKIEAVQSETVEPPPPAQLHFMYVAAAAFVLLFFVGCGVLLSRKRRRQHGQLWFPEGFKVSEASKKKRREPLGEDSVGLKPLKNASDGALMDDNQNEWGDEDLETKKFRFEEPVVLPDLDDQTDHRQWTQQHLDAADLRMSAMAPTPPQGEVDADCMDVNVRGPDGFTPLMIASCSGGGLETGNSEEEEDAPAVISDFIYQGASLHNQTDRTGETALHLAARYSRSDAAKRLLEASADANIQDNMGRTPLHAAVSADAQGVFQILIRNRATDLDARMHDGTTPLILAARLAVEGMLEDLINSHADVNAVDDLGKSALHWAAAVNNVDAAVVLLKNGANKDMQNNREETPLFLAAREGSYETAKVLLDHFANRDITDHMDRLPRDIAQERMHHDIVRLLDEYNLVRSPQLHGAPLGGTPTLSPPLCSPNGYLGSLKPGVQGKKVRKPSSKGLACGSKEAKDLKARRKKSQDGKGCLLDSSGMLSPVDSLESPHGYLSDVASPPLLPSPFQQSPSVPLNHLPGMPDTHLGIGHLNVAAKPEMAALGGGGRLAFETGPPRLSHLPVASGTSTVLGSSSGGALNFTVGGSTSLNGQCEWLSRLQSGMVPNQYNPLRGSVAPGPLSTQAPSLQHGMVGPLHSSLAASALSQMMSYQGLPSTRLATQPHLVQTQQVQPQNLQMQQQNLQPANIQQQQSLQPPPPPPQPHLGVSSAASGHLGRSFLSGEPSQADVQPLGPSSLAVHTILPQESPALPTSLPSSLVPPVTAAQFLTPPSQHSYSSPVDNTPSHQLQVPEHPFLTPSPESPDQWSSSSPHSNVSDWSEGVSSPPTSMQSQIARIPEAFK
T2 sequence (Q01705 19-2531): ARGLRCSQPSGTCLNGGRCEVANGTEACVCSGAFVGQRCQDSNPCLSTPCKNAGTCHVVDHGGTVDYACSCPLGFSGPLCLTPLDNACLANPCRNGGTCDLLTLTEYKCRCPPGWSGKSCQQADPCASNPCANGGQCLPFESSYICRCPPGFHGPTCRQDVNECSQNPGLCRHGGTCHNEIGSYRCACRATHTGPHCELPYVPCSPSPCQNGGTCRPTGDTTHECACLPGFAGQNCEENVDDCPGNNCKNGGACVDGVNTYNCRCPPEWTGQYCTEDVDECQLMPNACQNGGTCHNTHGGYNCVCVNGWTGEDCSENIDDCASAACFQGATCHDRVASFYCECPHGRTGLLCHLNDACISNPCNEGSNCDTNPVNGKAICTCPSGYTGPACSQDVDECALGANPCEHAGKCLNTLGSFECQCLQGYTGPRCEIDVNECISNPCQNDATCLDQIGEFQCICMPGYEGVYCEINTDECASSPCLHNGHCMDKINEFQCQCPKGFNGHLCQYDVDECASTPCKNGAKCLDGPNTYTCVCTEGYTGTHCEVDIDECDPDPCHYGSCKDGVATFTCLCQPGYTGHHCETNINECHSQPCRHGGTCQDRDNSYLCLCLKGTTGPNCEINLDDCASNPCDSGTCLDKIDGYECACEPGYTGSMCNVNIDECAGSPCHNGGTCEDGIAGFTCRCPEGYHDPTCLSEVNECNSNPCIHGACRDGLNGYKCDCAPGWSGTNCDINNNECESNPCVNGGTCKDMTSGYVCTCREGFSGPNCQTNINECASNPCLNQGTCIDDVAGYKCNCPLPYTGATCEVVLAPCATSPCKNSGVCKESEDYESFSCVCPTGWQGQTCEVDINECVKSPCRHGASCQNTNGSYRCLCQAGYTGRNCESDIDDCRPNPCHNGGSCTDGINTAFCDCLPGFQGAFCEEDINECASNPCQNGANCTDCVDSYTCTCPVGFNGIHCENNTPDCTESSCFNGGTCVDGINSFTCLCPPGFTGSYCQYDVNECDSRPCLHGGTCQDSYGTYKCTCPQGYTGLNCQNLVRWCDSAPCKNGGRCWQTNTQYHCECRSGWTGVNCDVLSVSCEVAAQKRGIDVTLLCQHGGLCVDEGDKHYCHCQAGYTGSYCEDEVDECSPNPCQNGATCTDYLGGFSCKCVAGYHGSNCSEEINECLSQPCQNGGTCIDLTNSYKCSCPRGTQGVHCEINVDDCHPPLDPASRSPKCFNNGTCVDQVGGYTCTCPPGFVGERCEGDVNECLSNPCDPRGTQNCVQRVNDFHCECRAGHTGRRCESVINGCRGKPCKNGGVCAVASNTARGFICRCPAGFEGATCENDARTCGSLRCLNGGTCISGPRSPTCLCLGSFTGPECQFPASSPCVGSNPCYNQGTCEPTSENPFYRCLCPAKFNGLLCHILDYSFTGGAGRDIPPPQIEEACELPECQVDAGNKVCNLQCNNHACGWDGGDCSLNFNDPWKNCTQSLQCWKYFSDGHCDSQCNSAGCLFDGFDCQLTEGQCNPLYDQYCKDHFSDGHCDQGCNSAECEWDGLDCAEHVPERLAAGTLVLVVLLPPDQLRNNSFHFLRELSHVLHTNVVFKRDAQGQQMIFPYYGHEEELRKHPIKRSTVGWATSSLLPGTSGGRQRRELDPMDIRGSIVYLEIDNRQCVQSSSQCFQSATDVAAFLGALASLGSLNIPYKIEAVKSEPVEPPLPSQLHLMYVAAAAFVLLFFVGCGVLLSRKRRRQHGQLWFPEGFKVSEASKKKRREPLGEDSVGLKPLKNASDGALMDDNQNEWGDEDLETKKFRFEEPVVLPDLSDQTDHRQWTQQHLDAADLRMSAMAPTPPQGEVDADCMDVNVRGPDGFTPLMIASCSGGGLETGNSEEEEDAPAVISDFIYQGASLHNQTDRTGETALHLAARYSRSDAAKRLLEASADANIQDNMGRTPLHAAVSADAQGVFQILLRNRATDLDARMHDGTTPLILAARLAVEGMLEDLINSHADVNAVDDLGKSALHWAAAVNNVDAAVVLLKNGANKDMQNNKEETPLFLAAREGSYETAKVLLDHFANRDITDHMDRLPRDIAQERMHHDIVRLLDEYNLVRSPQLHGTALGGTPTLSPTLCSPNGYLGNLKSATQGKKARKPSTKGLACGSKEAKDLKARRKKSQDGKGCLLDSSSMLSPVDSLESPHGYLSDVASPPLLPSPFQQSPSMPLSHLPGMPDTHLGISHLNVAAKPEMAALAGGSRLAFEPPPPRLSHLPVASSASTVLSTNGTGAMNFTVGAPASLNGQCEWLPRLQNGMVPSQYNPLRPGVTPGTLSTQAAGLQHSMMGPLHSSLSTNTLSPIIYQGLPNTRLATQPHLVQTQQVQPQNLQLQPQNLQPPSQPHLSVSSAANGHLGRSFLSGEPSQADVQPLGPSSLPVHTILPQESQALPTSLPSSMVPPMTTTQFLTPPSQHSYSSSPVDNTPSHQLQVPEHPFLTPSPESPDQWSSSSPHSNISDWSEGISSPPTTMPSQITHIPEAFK
T4 sequence (P46531 19-2555 L1593P limits assumed): as the sequence (P46531 19-2555) above, with L1575P counted along it

Binder | EC50 [1] | Kd [2] | koff [2] | kon [2] | EC50 [3] | EC50 [4] | IC50, MTS viability assay of HPB-ALL leukemia cells [5] | Fold difference from rat 438 [6] | IC50, mouse Notch1 reporter gene co-culture assay (DLL4-HEK293) [7] | IC50, human Notch1 reporter gene co-culture assay (DLL4-HEK293) [8] | EC50 [9] | Neutralization activity (murine RGA), IC50 [13] | Neutralization activity (Human RGA), IC50 [14] | IC50, Notch1 signaling inhibition co-culture reporter assay [15] | Maximal Inhibition (%), Notch1 signaling inhibition co-culture reporter assay [15] | also measured
B1 | 0.149 nM | 2.1 nM | 0.000449 s⁻¹ | 214000 M⁻¹ s⁻¹ | 3.2 nM | 1.2 nM | 2.26 nM | 0.48 fold | 0.46 nM | 0.17 nM | 0.203 nM | – | – | – | – | –
B2 | 0.0934 nM | 1.83 nM | 0.000442 s⁻¹ | 242000 M⁻¹ s⁻¹ | 2.8 nM | 2.5 nM | – | 0.42 fold | 0.62 nM | 0.45 nM | 0.152 nM | – | – | – | – | –
B3 | – | – | – | – | – | – | 1.27 nM | – | – | – | – | 0.42 nM | 0.22 nM | – | – | Firefly/Renilla Luminescence, human Notch1 reporter cells + 5 mM EDTA, 0.01 µg/mL antibody [10]: 304 Firefly/Renilla ratio; Firefly/Renilla Luminescence, human Notch1 reporter cells + 5 mM EDTA, 0.1 µg/mL antibody [10]: 202 Firefly/Renilla ratio; Firefly/Renilla Luminescence, human Notch1 reporter cells + 5 mM EDTA, 1 µg/mL antibody [10]: 84.8 Firefly/Renilla ratio; Firefly/Renilla Luminescence, human Notch1 reporter cells + 5 mM EDTA, 10 µg/mL antibody [10]: 62.1 Firefly/Renilla ratio; Firefly/Renilla Luminescence, human Notch1 reporter cells + 5 mM EDTA, 30 µg/mL antibody [10]: 57 Firefly/Renilla ratio; Normalized Notch1^ICD level, CCRF-CEM cells, 0.001 µg/ml antibody [11]: 0.982 relative to untreated; Normalized Notch1^ICD level, CCRF-CEM cells, 0.01 µg/ml antibody [11]: 1.04 relative to untreated; Normalized Notch1^ICD level, CCRF-CEM cells, 0.1 µg/ml antibody [11]: 0.413 relative to untreated; Normalized Notch1^ICD level, CCRF-CEM cells, 1 µg/ml antibody [11]: 0.043 relative to untreated; Normalized Notch1^ICD level, CCRF-CEM cells, 10 µg/ml antibody [11]: 0.034 relative to untreated; Normalized Notch1^ICD level, HPB-ALL cells, 0.001 µg/ml antibody [12]: 0.833 relative to untreated; Normalized Notch1^ICD level, HPB-ALL cells, 0.01 µg/ml antibody [12]: 0.886 relative to untreated; Normalized Notch1^ICD level, HPB-ALL cells, 0.1 µg/ml antibody [12]: 0.156 relative to untreated; Normalized Notch1^ICD level, HPB-ALL cells, 1 µg/ml antibody [12]: 0.075 relative to untreated; Normalized Notch1^ICD level, HPB-ALL cells, 10 µg/ml antibody [12]: 0.02 relative to untreated
B4 | – | – | – | – | – | – | 2.49 nM | – | – | – | – | – | – | 0.16 nM | 95.3% | –
B5 | – | – | – | – | – | – | 2.17 nM | – | – | – | – | – | – | 0.21 nM | 95.3% | –
B6 | 0.07 nM | 4.88 nM and 4.9 nM | 0.00223 s⁻¹ | 458000 M⁻¹ s⁻¹ | – | – | – | – | – | – | 0.1 nM | 0.49 nM | 0.17 nM | – | – | EC50 [16]: 2.11 nM; Fold difference from rat 351 [17]: 2.1 fold
